Data taken from US20080008648A1.

Molecular target: human IL13 (human) (UniProt P35225)
Assay: cell-based or functional assay

Chain of human IL13 (human) (P35225 35-146 limits assumed): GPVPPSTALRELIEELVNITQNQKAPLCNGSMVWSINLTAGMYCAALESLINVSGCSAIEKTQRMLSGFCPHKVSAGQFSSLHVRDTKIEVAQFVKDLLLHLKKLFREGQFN

inhibition of IL13-suppressed CD14 expression on human monocytes (complete inhibition): > 80 nM
Substance: anti-IL13 mAb JES10-5A2 (BD Biosciences-Pharmingen) (antibody)
